Experimental findings from article PMC10579713, “Melatonin enhances KCl salinity tolerance by maintaining K+ homeostasis in Malus hupehensis” are described below.

The target of the data set is T1, MdWRKY53 (Malus hupehensis (CDS amplified from; …, UniProt A0A498JJJ9 1-351).
T1 sequence: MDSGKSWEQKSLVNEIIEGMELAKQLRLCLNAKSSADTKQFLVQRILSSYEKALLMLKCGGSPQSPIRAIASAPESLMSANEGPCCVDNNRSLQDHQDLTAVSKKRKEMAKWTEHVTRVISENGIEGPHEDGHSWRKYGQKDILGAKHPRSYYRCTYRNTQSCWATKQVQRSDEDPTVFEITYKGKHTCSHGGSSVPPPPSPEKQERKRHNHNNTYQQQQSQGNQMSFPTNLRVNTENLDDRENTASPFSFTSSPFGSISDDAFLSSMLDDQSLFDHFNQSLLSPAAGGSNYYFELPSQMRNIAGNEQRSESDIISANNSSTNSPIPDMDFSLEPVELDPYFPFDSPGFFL
Kind of data set: EMSA; unlabeled competitor reduced the binding; LightShift chemiluminescence EMSA kit (Thermo), manufacturer's instructions; buffer, salt, pH and temperature not stated. The following applies: protein: recombinant; tags: GST (N-terminal, pGEX6p-1); blunt.

B1: MdGORK1 promoter W-box probe (dsDNA)
DNA 1: TTATGTCACCTTATGTTTTTGACACAATTTTTATAACGTTGACACAG
DNA 2: CTGTGTCAACGTTATAAAAATTGTGTCAAAAACATAAGGTGACATAA
On to B1, for which the binding result is reported as “binds”.

B2: MdNHX2 promoter W-box probe (dsDNA)
DNA 1: TGCACACGTCTTTCGAAGTTGACCAGATCAGTGTGCTTTGA
DNA 2: TCAAAGCACACTGATCTGGTCAACTTCGAAAGACGTGTGCA
In the case of B2, the binding result is “binds”.
